Measurements as given in paper PMC11388335.

Experiments:
[1] = target: PP1^Clover (PP1γ catalytic subunit fused to the FRET donor Clover) (human) (UniProt P36873); test: FRET or BRET; binary complexes SDS22^TAMRA-PP1^Clover (SP) or PP1^Clover-I3^TAMRA (PI) lacking the other subunit, incubated with p97, p37, ATP and NIPP1 as in a3
[2] = target: PP1^Clover (PP1γ catalytic subunit fused to the FRET donor Clover) (human) (UniProt P36873); test: FRET or BRET; ternary complexes SDS22^TAMRA-PP1^Clover-I3 or SDS22-PP1^Clover-I3^TAMRA (160 nM); FRET while the complex is formed, lost with p97 (160 nM), p37 (480 nM), ATP (2 mM) and unlabeled NIPP1 (240 nM); p97 buffer + 2% BSA + 1 mM DTT, 30 °C
[3] = target: PP1^Clover (PP1γ catalytic subunit fused to the FRET donor Clover) (human) (UniProt P36873); test: FRET or BRET; in vitro subunit exchange: SDS22-PP1^Clover-I3 (160 nM) with p97 (160 nM), p37 (480 nM), ATP (2 mM) and NIPP1^TAMRA (240 nM); p97 buffer + 2% BSA + 1 mM DTT, 30 °C; rise of acceptor/donor ratio
[4] = target: His-PP1γ^Clover (PP1 of the binary SP and NP complexes) (human) (UniProt P36873); test: FRET or BRET; binary complexes SDS22^TAMRA-PP1^Clover (SP) or PP1^Clover-I3^TAMRA (PI) lacking the other subunit, incubated with p97, p37, ATP and NIPP1 as in a3

rate constant of p97-p37-mediated dissociation, binary complex without SDS22 (exponential fit of FRET) [1] [min⁻¹]	rate constant of p97-p37-mediated dissociation (exponential fit of FRET) [2] [min⁻¹]	rate constant of p97-p37-mediated dissociation, ternary complex (exponential fit of FRET) [2] [min⁻¹]	rate constant of NIPP1 association after p97-p37-mediated release of PP1 (exponential fit of FRET) [3] [min⁻¹]	rate constant of dissociation with p97-p37, binary complex without I3 (exponential fit of FRET) [4] [min⁻¹]	Molecule
0.0734	0.69	0.644	–	–	I3^TAMRA (His-I3-LPETGGG labeled by sortase with a TAMRA Strep-tag peptide) (from UniProt O60927 1-126) (natural protein)
–	–	–	0.33	–	NIPP1^TAMRA (His-NIPP1-LPETGGG labeled by sortase with a TAMRA Strep-tag peptide) (from UniProt Q12972 1-351) (natural protein)
–	0.64	0.714	–	0.0003	SDS22^TAMRA (GGG-SDS22 labeled by sortase with a TAMRA Strep-tag peptide) (natural protein, TAMRA on the ligated peptide (TAMRA)-…) MAAERGAGQQQSQEMMEVDRRVESEESGDEEGKKHSSGIVADLSEQSLKDGEERGEEDPEEEHELPVDMETINLDRDAEDVDLNHYRIGKIEGFEVLKKVKTLCLRQNLIKCIENLEELQSLRELDLYDNQIKKIENLEALTELEILDISFNLLRNIEGVDKLTRLKKLFLVNNKISKIENLSNLHQLQMLELGSNRIRAIENIDTLTNLESLFLGKNKITKLQNLDALTNLTVLSMQSNRLTKIEGLQNLVNLRELYLSHNGIEVIEGLENNNKLTMLDIASNRIKKIENISHLTELQEFWMNDNLLESWSDLDELKGARSLETVYLERNPLQKDPQYRRKVMLALPSVRQIDATFVRF
